Experimental data published in the supplement of paper PMC10567573.

B1: RTP4 (parent)
chain: TYWEHWTSQGQVRMRLFGQRCQKC
B2: KCNK9 (parent)
chain: CFITLTTIGFGDYVALQTKGALQK

Variants of: B1
Test: protein stability index of a GFP-peptide fusion (GPS, HEK-293T) (PSI 1-6); higher = more stable
Details: c terminus: a fixed tail appended
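Further: lentivirally expressed fusions sorted by FACS into six bins by GFP to DsRed ratio, PSI derived from sequencing read proportions per bin multiplied by bin number.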

Protein stability index, by site and new letter:
F17: Y 1.55; L 1.85; Q 2.26; H 2.79; A 1.87; C 2.57; S 2.27; N 2.9; G 2.31; D 2.01; K 1.92; P 2.38; W 2.44; T 2.02; E 2.29; M 2.37; I 1.67
Q22: N 1.71; H 1.69; P 1.68; W 4.47; L 2.36; R 1.92; T 1.94; S 1.33; K 1.61; A 2.06; V 1.36; E 1.09; I 1.52
G18: R 2.02; Y 2.41; F 1.87; N 2.14; C 2.03; S 1.46; E 2.24; W 1.74; I 2.39; M 1.36; P 1.81; Q 1.4; D 2.04; K 1.86; T 1.91; H 2.23; A 1.96
C21: E 2.46; P 3.25; F 1.39; Q 2.12; N 2.15; M 1.7; Y 1.81; G 2.46; K 2.45; T 1.78; D 2.75; R 2.4; I 1.98; H 2.23; A 1.94; L 2.4
R20: I 1.03; N 1.34; K 1.86; E 1.57; Y 1.97; C 2.72; Q 1.24; L 1.75; W 2.49; H 1.63; F 1.82; T 2.22; D 2.47; G 1.93; P 1.78; S 1.65; M 2.69
K23: T 1.07; H 1.1; E 1.79; A 2.52; G 1.15; Q 1.92; S 1.48; D 1.79; P 1.65; R 1.4; Y 1.67; C 1.63
C24: F 2.78; D 2.53; W 1.54; H 2.07; A 2.31; N 2.22; L 2.2; Y 2.15; V 2.03; K 3.24; E 2.34; Q 2.28; R 2.29; M 2.29; P 1.69; T 2.41; G 2.2
Q19: H 2.6; E 1.62; Y 1.03; R 1.46; F 1.66; T 1.05; V 2.23; W 2.6; K 1.8; I 2.31; D 1.97; N 1.58; P 1.25; S 1.61; L 1.04; G 1.45; C 2.9; A 1.98
L16: V 1.81; Y 2.61; W 1.62

Variants of: B2
Test: as above
Details: c terminus: a fixed tail appended

Protein stability index of substitutions, site by site:
C1: H 3.02; L 4.01; S 2.4; E 2.02; P 1.66; D 1.57; A 2.27; W 3.09; R 2.57; T 3.37; G 1.26; M 3.33; I 3.52; Q 2.53; K 2.05; N 2.2
I3: C 2.68; A 2.03; D 2.82
F2: K 2.4; E 1.02; V 2.51; R 2.18; H 2.03; T 2.04; I 2.62; Q 1.82; L 3.17; P 2.5; G 2.02; D 1.99; S 2.72; N 1.61; M 1.43; A 1.82; C 2.23; Y 1.79
